The results in this text go back to publication PMC12719470 (2025).

In this assay the target is T1, TNFR2-His protein (UniProt P20333 23-461).
T1 chain: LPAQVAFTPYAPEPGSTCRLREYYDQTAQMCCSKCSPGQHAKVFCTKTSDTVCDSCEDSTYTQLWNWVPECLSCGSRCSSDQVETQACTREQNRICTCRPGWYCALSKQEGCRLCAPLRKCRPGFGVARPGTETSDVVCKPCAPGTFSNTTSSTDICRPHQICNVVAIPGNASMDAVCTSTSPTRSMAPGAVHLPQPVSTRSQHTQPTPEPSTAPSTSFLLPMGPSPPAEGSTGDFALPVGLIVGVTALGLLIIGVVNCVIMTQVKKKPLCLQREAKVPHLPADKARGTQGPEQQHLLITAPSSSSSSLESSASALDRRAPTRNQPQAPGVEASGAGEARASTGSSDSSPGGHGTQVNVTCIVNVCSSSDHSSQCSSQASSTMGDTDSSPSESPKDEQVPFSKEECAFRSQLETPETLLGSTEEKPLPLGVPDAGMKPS
Briefly: BLI. In general terms: In BLI a coated tip is dipped into the sample, and binding shifts an interference pattern.

B1: Nanobody-161 IgG1 Y105G (Fc fusion)
chain: EVQLVESGGGLVQPGGSLRLSCAASGSIRFINDMGWYRQAPGKGLELVAAIGRGGGSTNYADSVKGRFTISRDNAKNTLYLQMNSLRAEDTAVYYCHAEISQLGGAFRDYWGQGTLVTVSS
What is called Kd is the constant that tells how readily two partners part at equilibrium. A lower Kd goes with higher affinity. B1 returned a Kd of 214 µM.
